# T1: soluble HCV E2 ectodomain (sE2) (hepatitis C virus)
# T1 chain: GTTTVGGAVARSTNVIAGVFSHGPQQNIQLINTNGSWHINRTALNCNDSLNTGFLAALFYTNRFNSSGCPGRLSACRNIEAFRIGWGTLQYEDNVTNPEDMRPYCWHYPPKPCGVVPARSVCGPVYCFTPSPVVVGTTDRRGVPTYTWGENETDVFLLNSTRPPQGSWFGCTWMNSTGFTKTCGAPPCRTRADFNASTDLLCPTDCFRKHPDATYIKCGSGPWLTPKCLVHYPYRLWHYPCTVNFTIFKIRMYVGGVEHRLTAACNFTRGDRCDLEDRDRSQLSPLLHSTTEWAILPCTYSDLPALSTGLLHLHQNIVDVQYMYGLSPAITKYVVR
# B1: Fab fragment of neutralizing antibody HCV1 (Fab, V domains shown)
# VH: EVQLLESGGGVVQPGRSLRLSCTASGFTFNNYGMHWVRQTPGKGLEWLAVIWFDENNKYYADSVRGRFTISRDNSKNTLFLQMNSLKTEDTAMYYCARDISLVRDAFIYFDFWGLGTLVTVSS
# VL: ELTLTQSPATLSLSPGERATLSCRASQSVSSYLAWYQQKPGQAPRLLIYDASNRATGIPARFSGSGSGTDFTLTISSLEPEDFAVYYCQQRSNWITFGQGTRLEIK
# Molecular target: T1, soluble HCV E2 ectodomain (sE2)
binder,measurement,value
B1,Kd,294 nM
